Data: article PMC2757915, “The Elongator Complex Interacts with PCNA and Modulates Transcriptional Silencing and Sensitivity to DNA Damage Agents” (PLoS Genetics, 2009)

Target: T1, Elongator complex purified from yeast cells using Elp5-TAP (S. cerevisiae (endogenous in W303 yeast …, UniProt Q06706 1-1349; P42935 1-788; Q02908 1-557; Q02884 1-456; P38874 1-309; Q04868 …)
T1 construct: Elp1, S. cerevisiae; Elp2, S. cerevisiae; Elp3 (Kat9), S. cerevisiae; Elp4, S. cerevisiae; Elp5, S. cerevisiae; Elp6, S. cerevisiae; Six-subunit complex; also called Elp3 complex; Elp1-Elp6 complex; copies: + + + + +
Experiment: co-IP; in vitro: 2.5 µg recombinant PCNA incubated with different amounts of Elp3 complex (purified with Elp5-TAP) in TBS with 0.01% NP-40 at 4°C for 2 hrs; precipitated with polyclonal anti-PCNA antibodies and Protein G Sepharose; Western blot for PCNA and CBP; pre-bleed sera as negative control
Conditions: both partners purified

B1: recombinant PCNA (natural protein, S. cerevisiae, UniProt P15873 1-258, looked up)
chain: MLEAKFEEASLFKRIIDGFKDCVQLVNFQCKEDGIIAQAVDDSRVLLVSLEIGVEAFQEYRCDHPVTLGMDLTSLSKILRCGNNTDTLTLIADNTPDSIILLFEDTKKDRIAEYSLKLMDIDADFLKIEELQYDSTLSLPSSEFSKIVRDLSQLSDSINIMITKETIKFVADGDIGSGSVIIKPFVDMEHPETSIKLEMDQPVDLTFGAKYLLDIIKGSSLSDRVGIRLSSEAPALFQFDLKSGFLQFFLAPKFNDEE
notes: PCNA, encoded by POL30, S. cerevisiae; expressed from a plasmid in E. coli; No tag is named; purified by conventional chromatography; source: E. coli BL21(DE3), purified (Q-Sepharose, hydroxyapatite, Superdex 200)
binding result: binds
